How the values were obtained:
[1] = biological target: T1, PSMA expressed on target cells (PC3pip cells, high density; 22Rv1 cells, low density) (UniProt Q04609 1-750, limits assumed); experiment: cell-based or functional assay
[2] = biological target: T1, PSMA expressed on target cells (PC3pip …); experiment: cell-based or functional assay; remark: listed apart in the source
[3] = biological target: T1, PSMA expressed on target cells (PC3pip …); experiment: cell-based or functional assay; remark: listed apart in the source
[4] = biological target: T1, PSMA expressed on target cells (PC3pip …); experiment: cell-based or functional assay; remark: listed apart in the source
[5] = biological target: T1, PSMA expressed on target cells (PC3pip …); experiment: cell-based or functional assay; remark: listed apart in the source
[6] = biological target: T1, PSMA expressed on target cells (PC3pip …); experiment: cell-based or functional assay; remark: listed apart in the source
[7] = biological target: T2, biotin-labeled CD16a (Acro P/N CDA-H82E8) (human, UniProt P08637 17-208, biotin-labeled (site not stated)); experiment: BLI, biotin-labeled CD16a on streptavidin biosensors, pH 7.4
T2 construct: also called recombinant human CD16a; immobilized CD16a

[8] = biological target: T3, Biotinylated his-tagged human PSMA (human, UniProt Q04609 44-750, limits assumed, biotinylated (site not stated)); experiment: BLI, biotinylated his-tagged human PSMA on streptavidin sensors, pH 5.7
T3 construct: also called immobilized PSMA; not shown: his tag

[9] = biological target: T3, Biotinylated his-tagged human PSMA; experiment: BLI, biotinylated his-tagged human PSMA on streptavidin sensors, pH 7.4
[10] = biological target: T1, PSMA expressed on target cells (PC3pip …); experiment: cell-based or functional assay; remark: listed apart in the source
[11] = biological target: T2, biotin-labeled CD16a (Acro P/N …); experiment: BLI (Octet), biotin-CD16a on streptavidin sensors, dilutions from 200 nM to 3.125 nM

T1 sequence (Q04609 whole entry): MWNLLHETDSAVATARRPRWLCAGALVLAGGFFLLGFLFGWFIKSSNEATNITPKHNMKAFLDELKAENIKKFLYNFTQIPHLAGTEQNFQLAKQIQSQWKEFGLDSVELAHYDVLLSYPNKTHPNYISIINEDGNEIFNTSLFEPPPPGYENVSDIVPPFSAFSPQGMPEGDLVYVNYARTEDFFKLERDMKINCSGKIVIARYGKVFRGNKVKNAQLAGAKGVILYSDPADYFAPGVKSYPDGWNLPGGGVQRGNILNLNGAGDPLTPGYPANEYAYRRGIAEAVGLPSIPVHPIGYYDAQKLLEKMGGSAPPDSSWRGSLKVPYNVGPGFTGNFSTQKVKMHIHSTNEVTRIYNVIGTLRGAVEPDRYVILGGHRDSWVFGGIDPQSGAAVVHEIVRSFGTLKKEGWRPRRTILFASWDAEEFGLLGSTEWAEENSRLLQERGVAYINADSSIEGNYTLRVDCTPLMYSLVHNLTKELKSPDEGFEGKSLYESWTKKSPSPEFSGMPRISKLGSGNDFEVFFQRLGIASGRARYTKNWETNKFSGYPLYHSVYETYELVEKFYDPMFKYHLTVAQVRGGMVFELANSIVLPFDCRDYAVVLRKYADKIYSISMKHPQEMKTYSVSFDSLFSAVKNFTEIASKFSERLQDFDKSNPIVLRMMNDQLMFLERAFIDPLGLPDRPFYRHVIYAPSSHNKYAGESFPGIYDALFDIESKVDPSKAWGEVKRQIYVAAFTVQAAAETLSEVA
T2 sequence (P08637 17-208 limits assumed): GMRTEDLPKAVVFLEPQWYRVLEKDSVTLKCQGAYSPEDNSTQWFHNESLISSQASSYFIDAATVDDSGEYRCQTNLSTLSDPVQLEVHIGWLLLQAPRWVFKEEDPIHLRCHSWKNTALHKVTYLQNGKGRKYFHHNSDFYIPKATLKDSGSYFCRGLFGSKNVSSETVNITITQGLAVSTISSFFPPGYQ
T3 sequence (Q04609 44-750 limits assumed): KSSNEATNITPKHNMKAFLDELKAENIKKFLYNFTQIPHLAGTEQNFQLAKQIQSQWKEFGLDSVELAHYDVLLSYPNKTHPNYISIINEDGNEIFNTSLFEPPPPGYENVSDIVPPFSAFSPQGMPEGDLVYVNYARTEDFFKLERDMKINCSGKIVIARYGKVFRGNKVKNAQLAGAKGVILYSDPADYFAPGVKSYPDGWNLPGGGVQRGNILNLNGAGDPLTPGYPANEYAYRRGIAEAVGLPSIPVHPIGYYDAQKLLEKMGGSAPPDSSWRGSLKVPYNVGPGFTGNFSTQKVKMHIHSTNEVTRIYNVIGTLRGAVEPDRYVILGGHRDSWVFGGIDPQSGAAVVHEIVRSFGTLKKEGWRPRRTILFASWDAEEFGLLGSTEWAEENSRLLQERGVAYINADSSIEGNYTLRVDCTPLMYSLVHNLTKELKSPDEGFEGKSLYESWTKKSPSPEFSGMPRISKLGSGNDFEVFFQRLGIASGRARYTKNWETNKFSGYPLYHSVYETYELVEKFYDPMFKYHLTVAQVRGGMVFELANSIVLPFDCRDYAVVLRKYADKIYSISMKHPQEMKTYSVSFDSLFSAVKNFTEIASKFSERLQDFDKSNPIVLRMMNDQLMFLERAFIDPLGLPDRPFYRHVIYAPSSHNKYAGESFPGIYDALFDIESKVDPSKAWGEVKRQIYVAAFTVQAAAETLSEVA

B1: C25 (C37-L3-C36) (bispecific antibody)
chain: EVQLVESGGGLVQPGESLTLSCVVAGSIFSFAMSWYRQAPGKERELVARIGSDDRVTYADSVKGRFTISRDNIKRTAGLQMNSLKPEDTAVYYCNAQTDLRDWTVREYWGQGTQVTVSSGGGGSGGGGSGGGGSGGGGSQVQLQESGGGSVEAGGSLRLSCARSGWPYSTYSMNWFRQAPGKEREAVAGISSTMSGIIFAESKAGQFTISQDNAKNTVYLQMNNLKPEDTAIYYCAARRYFSLSSSSDDFDYWGQGTQVTVSSAAAYPYDVPDYGSSPSTPPTPSPSTPPHHHHHH
notes: also called C25 (TYR); non-covalent construct C25
[1]
  EC50; ADCC luciferase reporter assay (Jurkat CD16a V158 reporter cells), PC3pip 24 h continuous: 9.2 nM
[2]
  EC50; ADCC reporter assay, PC3pip 4 h washout, 24 h endpoint: 0.141 nM
[3]
  EC50; ADCC reporter assay, 22Rv1 24 h continual: 12.1 nM
[4]
  EC50; ADCC reporter assay, 22Rv1 4 h washout, 24 h endpoint: 62.6 nM
[5]
  EC50 [nM]; primary human NK cell-mediated killing of PC3pip cells, no washout, 20 h incubation: 7.02 nM
[6]
  EC50 [nM]; NK cell-mediated killing of PC3pip cells, 5 h washout, 20 h incubation: 26.2 nM
[7]
  Kd: 1.11 nM
  koff: 0.000152 s⁻¹
  kon: 137000 M⁻¹ s⁻¹
[8]
  Kd: 1570 nM
  koff: 0.0483 s⁻¹
  kon: 30800 M⁻¹ s⁻¹
[9]
  Kd: 1160 nM
  koff: 0.03 s⁻¹
  kon: 25900 M⁻¹ s⁻¹

B2: C27 (bispecific antibody)
chain: EVQLVESGGGPVQAGGSLRLSCAASGRTYRGYSMGWFRQAPGKEREFVAAIVWSGGNTYYEDSVKGRFTISRDNAKNTMYLQMTSLKPEDSATYYCAAKIRPYIFKIAGQYDYWGQGTLVTVSSGGGGSGGGGSGGGGSGGGGSQVQLQESGGGSVEAGGSLRLSCARSGWPYSTYSMNWFRQAPGKEREAVAGISSTMSGIIFAESKAGQFTISQDNAKNTVYLQMNNLKPEDTAIYYCAARRXFSLSSSSDDFDYWGQGTQVTVSSAAAYPYDVPDYGSSPSTPPTPSPSTPPHHHHHH
modifications: FSY (fluorosulfonyltyrosine) at the position printed X in SEQ ID NO: 42 (position 101 of the anti-PSMA sdAb domain)
[10]
  EC50; T-cell luciferase reporter assay with PC3pip target cells, 6 hr: 0.59 nM
  fold efficacy against the commercial CD3-PSMA bispecific antibody; T-cell luciferase reporter assay, PC3pip: 1.2 fold
  fold potency against C26; T-cell luciferase reporter assay, PC3pip: 12.7 fold
  fold potency against the commercial CD3-PSMA bispecific antibody; T-cell luciferase reporter assay, PC3pip: 1.4 fold

B3: C26 (bispecific antibody)
chain: EVQLVESGGGPVQAGGSLRLSCAASGRTYRGYSMGWFRQAPGKEREFVAAIVWSGGNTYYEDSVKGRFTISRDNAKNTMYLQMTSLKPEDSATYYCAAKIRPYIFKIAGQYDYWGQGTLVTVSSGGGGSGGGGSGGGGSGGGGSQVQLQESGGGSVEAGGSLRLSCARSGWPYSTYSMNWFRQAPGKEREAVAGISSTMSGIIFAESKAGQFTISQDNAKNTVYLQMNNLKPEDTAIYYCAARRYFSLSSSSDDFDYWGQGTQVTVSSAAAYPYDVPDYGSSPSTPPTPSPSTPPHHHHHH
[10]
  EC50; T-cell luciferase reporter assay with PC3pip target cells, 6 hr: 7.4 nM

B4: C37 (anti-CD16a sdAb) (VHH)
VHH: EVQLVESGGGLVQPGESLTLSCVVAGSIFSFAMSWYRQAPGKERELVARIGSDDRVTYADSVKGRFTISRDNIKRTAGLQMNSLKPEDTAVYYCNAQTDLRDWTVREYWGQGTQVTVSS
notes: also called CD16a sdAb domain alone; monospecific anti-CD16a sdAb
[11]
  binding result: binds

B5: C30 (bispecific antibody)
chain: EVQLVESGGGLVQPGGSLRLSCVASGDVHKINFLGWYRQAPGKEREKVAHISIGDQTDYADSAKGRFTISRDESKNMVYLQMNSLKPEDTAVYFCRAFSRIYPYDYWGQGTLVTVSSGGGGSGGGGSGGGGSGGGGSQVQLQESGGGSVEAGGSLRLSCARSGWPYSTYSMNWFRQAPGKEREAVAGISSTMSGIIFAESKAGQFTISQDNAKNTVYLQMNNLKPEDTAIYYCAARRXFSLSSSSDDFDYWGQGTQVTVSSAAAYPYDVPDYGSSPSTPPTPSPSTPPHHHHHH
modifications: FSY (fluorosulfonyltyrosine) at the position printed X in SEQ ID NO: 45 (position 101 of the anti-PSMA sdAb domain)
[10]
  EC50; T-cell luciferase reporter assay with PC3pip target cells, 6 hr: 0.51 nM
  fold potency against C29; T-cell luciferase reporter assay, PC3pip: 11.8 fold
  fold potency against the commercial CD3-PSMA bispecific antibody; T-cell luciferase reporter assay, PC3pip: 1.6 fold

B6: C29 (bispecific antibody)
chain: EVQLVESGGGLVQPGGSLRLSCVASGDVHKINFLGWYRQAPGKEREKVAHISIGDQTDYADSAKGRFTISRDESKNMVYLQMNSLKPEDTAVYFCRAFSRIYPYDYWGQGTLVTVSSGGGGSGGGGSGGGGSGGGGSQVQLQESGGGSVEAGGSLRLSCARSGWPYSTYSMNWFRQAPGKEREAVAGISSTMSGIIFAESKAGQFTISQDNAKNTVYLQMNNLKPEDTAIYYCAARRYFSLSSSSDDFDYWGQGTQVTVSSAAAYPYDVPDYGSSPSTPPTPSPSTPPHHHHHH
[10]
  EC50; T-cell luciferase reporter assay with PC3pip target cells, 6 hr: 5.98 nM

B7: C31 (bispecific antibody)
chain: QVQLQESGGGSVEAGGSLRLSCARSGWPYSTYSMNWFRQAPGKEREAVAGISSTMSGIIFAESKAGQFTISQDNAKNTVYLQMNNLKPEDTAIYYCAARRYFSLSSSSDDFDYWGQGTQVTVSSGGGGSGGGGSGGGGSGGGGSEVQLVESGGGPVQAGGSLRLSCAASGRTYRGYSMGWFRQAPGKEREFVAAIVWSGGNTYYEDSVKGRFTISRDNAKNTMYLQMTSLKPEDSATYYCAAKIRPYIFKIAGQYDYWGQGTLVTVSSAAAYPYDVPDYGSSPSTPPTPSPSTPPHHHHHH
[10]
  EC50; T-cell luciferase reporter assay with PC3pip target cells, 6 hr: 5.33 nM

B8: C32 (bispecific antibody)
chain: QVQLQESGGGSVEAGGSLRLSCARSGWPYSTYSMNWFRQAPGKEREAVAGISSTMSGIIFAESKAGQFTISQDNAKNTVYLQMNNLKPEDTAIYYCAARRYFSLSSSSDDFDYWGQGTQVTVSSGGGGSGGGGSGGGGSGGGGSEVQLVESGGGLVQPGGSLRLSCAASGDIYKSFDMGWYRQAPGKQRDLVAVIGSRGNNRGRTNYADSVKGRFTISRDGTGNTVYLLMNKLRPEDTAIYYCNTAPLVAGRPWGRGTLVTVSSAAAYPYDVPDYGSSPSTPPTPSPSTPPHHHHHH
[10]
  EC50; T-cell luciferase reporter assay with PC3pip target cells, 6 hr: 1.42 nM

B9: C34 (bispecific antibody)
chain: QVQLQESGGGSVEAGGSLRLSCARSGWPYSTYSMNWFRQAPGKEREAVAGISSTMSGIIFAESKAGQFTISQDNAKNTVYLQMNNLKPEDTAIYYCAARRXFSLSSSSDDFDYWGQGTQVTVSSGGGGSGGGGSGGGGSGGGGSEVQLVESGGGLVQPGGSLRLSCVASGDVHKINFLGWYRQAPGKEREKVAHISIGDQTDYADSAKGRFTISRDESKNMVYLQMNSLKPEDTAVYFCRAFSRIYPYDYWGQGTLVTVSSAAAYPYDVPDYGSSPSTPPTPSPSTPPHHHHHH
modifications: FSY (fluorosulfonyltyrosine) at the position printed X in SEQ ID NO: 49 (position 101 of the anti-PSMA sdAb domain)
[10]
  EC50; T-cell luciferase reporter assay with PC3pip target cells, 6 hr: 1.42 nM
  fold potency against C33; T-cell luciferase reporter assay, PC3pip: 21.9 fold

B10: C33 (bispecific antibody)
chain: QVQLQESGGGSVEAGGSLRLSCARSGWPYSTYSMNWFRQAPGKEREAVAGISSTMSGIIFAESKAGQFTISQDNAKNTVYLQMNNLKPEDTAIYYCAARRYFSLSSSSDDFDYWGQGTQVTVSSGGGGSGGGGSGGGGSGGGGSEVQLVESGGGLVQPGGSLRLSCVASGDVHKINFLGWYRQAPGKEREKVAHISIGDQTDYADSAKGRFTISRDESKNMVYLQMNSLKPEDTAVYFCRAFSRIYPYDYWGQGTLVTVSSAAAYPYDVPDYGSSPSTPPTPSPSTPPHHHHHH
[10]
  EC50; T-cell luciferase reporter assay with PC3pip target cells, 6 hr: 31.1 nM

B11: C28 (bispecific antibody)
chain: EVQLVESGGGLVQPGGSLRLSCAASGDIYKSFDMGWYRQAPGKQRDLVAVIGSRGNNRGRTNYADSVKGRFTISRDGTGNTVYLLMNKLRPEDTAIYYCNTAPLVAGRPWGRGTLVTVSSGGGGSGGGGSGGGGSGGGGSQVQLQESGGGSVEAGGSLRLSCARSGWPYSTYSMNWFRQAPGKEREAVAGISSTMSGIIFAESKAGQFTISQDNAKNTVYLQMNNLKPEDTAIYYCAARRYFSLSSSSDDFDYWGQGTQVTVSSAAAYPYDVPDYGSSPSTPPTPSPSTPPHHHHHH
[10]
  EC50; T-cell luciferase reporter assay with PC3pip target cells, 6 hr: 14.8 nM
